Several values for one entry are separate records, joined by “and”; a condition that tells them apart may be missing. Equal values may be shown once.
Assays:
[1] = molecular target: optimized bait-PAR-Grb2 with inserted flexible linker sequences, GFP-fused (UniProt P62993); assay: TIR-FRAP on micropatterned bait
[2] = molecular target: optimized bait-PAR-Grb2 with inserted flexible linker sequences, GFP-fused (UniProt P62993); assay: subcellular micropatterning
[3] = molecular target: optimized bait-PAR-Grb2 with inserted flexible linker sequences, RFP-fused (UniProt P62993); assay: subcellular micropatterning
[4] = molecular target: T1, optimized bait-PAR-Grb2 with inserted flexible linker sequences, RFP-fused, P62993; assay: TIR-FRAP on micropatterned bait; conditions: remark: other sources report otherwise
[5] = molecular target: T1, optimized bait-PAR-Grb2 with inserted …; assay: subcellular micropatterning; conditions: remark: other sources report otherwise

## SHC-transforming protein 1 (Shc1), RFP-fused (from UniProt P29353 1-583) (natural protein)
[1]
  halftime of dissociation (FRAP): 10 s
  k slow (exchange rate, bi-exponential FRAP fit): 0.103 s⁻¹
[2]
  bait-normalized fluorescence contrast <c (prey/bait)>, after EGF: 0.45
  bait-normalized fluorescence contrast <c (prey/bait)>, unstimulated cells: 0.14

## cell-permeable cyclic peptide cyclo(YpVNFΦrpPRR)
[3]
  EC50: 68 µM and 63 µM
  dissociation half-life of Gab1 from Grb2 at 100 μM peptide: 42 s
  dissociation half-life of SOS1 from Grb2 at 100 μM peptide: 36 s
  maximum prey dissociation (Gab1 and SOS1 from Grb2) at 100 μM peptide: 70 to 75%

B1: son of sevenless protein 1 (SOS1), GFP-fused, Q07889 1-1333 (natural protein)
chain: MQAQQLPYEFFSEENAPKWRGLLVPALKKVQGQVHPTLESNDDALQYVEELILQLLNMLCQAQPRSASDVEERVQKSFPHPIDKWAIADAQSAIEKRKRRNPLSLPVEKIHPLLKEVLGYKIDHQVSVYIVAVLEYISADILKLVGNYVRNIRHYEITKQDIKVAMCADKVLMDMFHQDVEDINILSLTDEEPSTSGEQTYYDLVKAFMAEIRQYIRELNLIIKVFREPFVSNSKLFSANDVENIFSRIVDIHELSVKLLGHIEDTVEMTDEGSPHPLVGSCFEDLAEELAFDPYESYARDILRPGFHDRFLSQLSKPGAALYLQSIGEGFKEAVQYVLPRLLLAPVYHCLHYFELLKQLEEKSEDQEDKECLKQAITALLNVQSGMEKICSKSLAKRRLSESACRFYSQQMKGKQLAIKKMNEIQKNIDGWEGKDIGQCCNEFIMEGTLTRVGAKHERHIFLFDGLMICCKSNHGQPRLPGASNAEYRLKEKFFMRKVQINDKDDTNEYKHAFEIILKDENSVIFSAKSAEEKNNWMAALISLQYRSTLERMLDVTMLQEEKEEQMRLPSADVYRFAEPDSEENIIFEENMQPKAGIPIIKAGTVIKLIERLTYHMYADPNFVRTFLTTYRSFCKPQELLSLIIERFEIPEPEPTEADRIAIENGDQPLSAELKRFRKEYIQPVQLRVLNVCRHWVEHHFYDFERDAYLLQRMEEFIGTVRGKAMKKWVESITKIIQRKKIARDNGPGHNITFQSSPPTVEWHISRPGHIETFDLLTLHPIEIARQLTLLESDLYRAVQPSELVGSVWTKEDKEINSPNLLKMIRHTTNLTLWFEKCIVETENLEERVAVVSRIIEILQVFQELNNFNGVLEVVSAMNSSPVYRLDHTFEQIPSRQKKILEEAHELSEDHYKKYLAKLRSINPPCVPFFGIYLTNILKTEEGNPEVLKRHGKELINFSKRRKVAEITGEIQQYQNQPYCLRVESDIKRFFENLNPMGNSMEKEFTDYLFNKSLEIEPRNPKPLPRFPKKYSYPLKSPGVRPSNPRPGTMRHPTPLQQEPRKISYSRIPESETESTASAPNSPRTPLTPPPASGASSTTDVCSVFDSDHSSPFHSSNDTVFIQVTLPHGPRSASVSSISLTKGTDEVPVPPPVPPRRRPESAPAESSPSKIMSKHLDSPPAIPPRQPTSKAYSPRYSISDRTSISDPPESPPLLPPREPVRTPDVFSSSPLHLQPPPLGKKSDHGNAFFPNSPSPFTPPPPQTPSPHGTRRHLPSPPLTQEVDLHSIAGPPVPPRQSTSQHIPKLPPKTYKREHTHPSMHRDGPPLLENAHSS
[4]
  halftime of dissociation (FRAP): 13 s
  k slow (exchange rate, bi-exponential FRAP fit): 0.074 s⁻¹
[5]
  bait-normalized fluorescence contrast <c (prey/bait)>, after EGF: 0.56
  bait-normalized fluorescence contrast <c (prey/bait)>, basal conditions: 0.55
  reduction of copatterning with 10 μM actinomycin D: 25%

Source: publication doi:10.1101/2021.05.25.445547
